# The nanobody polyreactivity screen of Harvey et al. (2022)
# Experiment: yeast display, Sf9 membrane polyspecificity reagent, FACS + sequencing; frameworks hold sequencing errors
# Outline: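 Nanobodies came from a synthetic yeast display library in Saccharomyces cerevisiae BJ5465, induced with galactose for 36–48 hours and stained for 1 hour at 4 °C with 10% biotinylated, detergent-solubilized Sf9 membrane reagent. Cells were enriched on streptavidin microbeads and then FACS-sorted, with low and high (top ~1%) gates set on anti-HA fluorescence for expression and streptavidin fluorescence for reagent binding. Each polyreactivity label reflects the gate a clone came from. Genes were amplified by colony PCR, sequenced by MiSeq 2 × 250 and filtered by CDR length.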
row,Sequence,polyreactivity (PSR sort gate)
1,QVQLVESGGGLVQAGGSLRLSCAAYGLIFGHYAMGWYRQEPGKERELVAAITTRGSSTYYADSVKGRFTISRDNAKNTVYLQMNSLKPEDTAVYYCNAKLVYGTTYKFDNWGQGTQVTVSS,high polyreactivity
2,QVQLVESGGGLVQAGGSLRLSCAAYGLTFYGNAMGWYRQAPGKERELVAAISRGGRTYYADSVKGRFTISRDNAKKTVYLQRNSLKPEDTAVYYCATVVSRVKQPFDMDYWGQGTQVTVSA,low polyreactivity
3,QVQLVESGGGLVQAGGSLRLSCAAYGLTFYHYTMGWYRQAPGKERELVAAISSSGVTTYYADSVKGRFTISRDNAKNTVYLQMNSLKPEDTAVYYCAAVWYPDRVQPENGTTDSPGDYWGQGTQVTVSS,low polyreactivity
4,QVQLVESGGGLVQAGGSLRLSCAAYGNTLDVNAMGWYRQAPGKERELVPAITSGGSTNYADSVKGRFTISRDNAKNTVYLQMNSLKPEDTAVYYCAKGSGVTYVTETLNTDYGYWGQGTQVTVSS,low polyreactivity
5,QVQLVESGGGLVQAGGSLRLSCAAYGRIFDAYAMGWYRQAPGKERELVAAITQSGGSTFYADSVKGRFTNSRDNAKNTVYLQMNSLKPEDTAVYDSNTGLSGRRYGFGVSFGMDYWGQGTQVTVSS,low polyreactivity
6,QVQLVESGGGLVQAGGSLRLSCAAYGRIFFNNAMGWYRQAPGKERELVAAINSGGRTNYADSVKGRFTISRDNAKNTVYLQMNSLKPEDTAVYYCNADDYPVWEFDYWGQGTQVTVSS,low polyreactivity
7,QVQLVESGGGLVQAGGSLRLSCAAYGRIFLGYAMGWYIQAPGKERELVAVISYSGTRTYYADSVKGRFTISRDNAKNTVYLQMNSLKPEDTAVYYCNARANGFKDGYWGQGTQVTVSS,high polyreactivity
8,QVQLVESGGGLVQAGGSLRLSCAAYGRNFTYYAMGWYRQAPGKERELVAANSRSGGRTYYADSVKGRFTISRDNAKNTVYLQMNSLKPEDTGVYYCAADRLSLRAYDYWGQGTQVNVSS,high polyreactivity
9,QVQLVESGGGLVQAGGSLRLSCAAYGRTFWRNAMGWYRQAPGKEREWVAAISRSGDSTRYADSLKGRFTISRDNAKNTFYLQMNSLKPEDTAVYYCNKLGTRVYEMDYWGQGTQVTVSS,high polyreactivity
10,QVQLVESGGGLVQAGGSLRLSCAAYGRTIPRYAIGWSRQAPGKQRDFVDSISFSSGSTYYADSVKGRFTISRDNAKNTVYVQMKSMKAEDTAVDYSNDIPGSRYYGYRLYYYWGQGTQVTVSS,high polyreactivity
11,QVQLVESGGGLVQAGGSLRLSCAAYGRTIRVYAMVWYRQAPGKERELVAAITSGDSTYYADSVKGRFTISRDNAKNTVYLQMNSLKPEDTAVYYCAVNTRRYWYGYWGQGTQVTVSS,high polyreactivity
12,QVQLVESGGGLVQAGGSLRLSCAAYGRTISRNTMAWYRQAPGKERELVAGITYGGDRTYYADSVKGRFTISRDNAKNTVYLQMNSLKPEDTSVYYCAAPWYWKGLRDYWGQGTQVTVSS,low polyreactivity
13,QVQLVESGGGLVQAGGSLRLSCAAYGSIFRVYAMGWYRQAPGKEREFVAAITRRGTRTYYADSVKGRFTISRDNAKNTVYLQMNSLKPEDTAVYYCAAYFTDGLFEYWGQGTQVTVSS,low polyreactivity
14,QVQLVESGGGLVQAGGSLRLSCAAYGSIFSWNAMGWYIQAPRKERELVAGITWSGGGTSYADSVKGRFTISRDNAKNTVYLQMNSLKPEDTAVYYCAKEWIFEFNYWGQGTQVTVSS,low polyreactivity
15,QVQLVESGGGLVQAGGSLRLSCAAYGSIFYFNAMGRYRQAPGKERELVASITSGGSTNYADSVKGRFTISRDNAKNTVYLQMNSLKPEETEVYYCNARFPYLSRWLVRGLASYDYWGQGTQVTVSS,low polyreactivity
16,QVQLVESGGGLVQAGGSLRLSCAAYGSIFYYNAMGWYRQAPGKERELVAAITKSGTRTNYADSVKGRFTLSRDNAKNTVYLQMNSLKPEDTAVYYCAAEDQYYRYLFAYEYWGQGTQVTVSS,high polyreactivity
17,QVQLVESGGGLVQAGGSLRLSCAAYGSILYVYAMGWYRQAPGKERELVAVITAGGSTNYADSVKGRFTISRDNAKNTVYLQMNSLKPEHSAVYYCAADPYSVYGGDYWGQGTQVTVSS,low polyreactivity
18,QVQLVESGGGLVQAGGSLRLSCAAYGSTFYNNVMGWYRPAPGKERELVAAINSGGRTYYADSVKGRFTISRDNAKNTVYLQMNSLKPEDTAVYYCAVGYGRAGRMDYWGQGTQVTVSS,high polyreactivity
19,QVQLVESGGGLVQAGGSLRLSCAAYGSTLTWNAMGWYRQAPGKERELVAAITGVGSTNYADSVKGRFTISRDNAKNTVYLQMNSLKPEDSAVYYCAAQGSGSTLYEYWGQGTQVTVSS,low polyreactivity
20,QVQLVESGGGLVQAGGSLRLSCAAYSYVMGWYRQAPGKERELVAAISQSGGSTYYADSVKGRFTISRDNAKNTVYLQMNSLKPEDTADYYCAARREPYQYNQYYSWGQGTQVTVSS,high polyreactivity
21,QVQLVESGGGLVQAGGSLRLSCAAYVSIFGDNALGWYRQAPGKEMELVAAISSDGNTNYADSVKGRFTISRDNAKNTVYLQMNSLKPEDTAVYYCAARWGYRRVRANSFYYWGQGTQVTVSS,low polyreactivity
22,QVQLVESGGGLVQAGGSLRLSCAAYYAMGWYRQAPGKERELVAAIDDGTSTNYADSVKGRFTISRDNAKNTVYLQMKSLKPEDTAVYYCNKLSEVTYYGSKFDYWGQGTQVTVSS,low polyreactivity
